# Source: paper PMC9482650, “Quantitative fragmentomics allow affinity mapping of interactomes” (Nature Communications, 2022)
# T1: MPDZ_12, O75970
# T1 sequence (O75970 1857-1958, limits assumed, looked up): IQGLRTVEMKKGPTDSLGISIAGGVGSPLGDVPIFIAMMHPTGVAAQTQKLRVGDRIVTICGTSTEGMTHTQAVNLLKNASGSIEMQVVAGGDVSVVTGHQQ
# T2: APBA3_1, O96018
# T2 sequence (O96018 389-490, limits assumed, looked up): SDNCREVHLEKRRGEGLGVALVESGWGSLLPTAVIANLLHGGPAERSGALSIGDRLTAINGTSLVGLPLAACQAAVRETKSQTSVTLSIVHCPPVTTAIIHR
# T3: APBA1_2, Q02410
# T3 sequence (Q02410 742-832, limits assumed, looked up): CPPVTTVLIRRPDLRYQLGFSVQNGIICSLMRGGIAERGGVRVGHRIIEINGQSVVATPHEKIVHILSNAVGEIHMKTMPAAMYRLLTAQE
# T4: GRIP1_7, Q9Y3R0
# T4 sequence (Q9Y3R0 999-1096, limits assumed, looked up): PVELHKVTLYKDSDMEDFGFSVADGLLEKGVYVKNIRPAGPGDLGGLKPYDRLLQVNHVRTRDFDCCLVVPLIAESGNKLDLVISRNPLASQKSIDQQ
# T5: SYNJ2BP, P57105
# T5 sequence (P57105 8-110, limits assumed, looked up): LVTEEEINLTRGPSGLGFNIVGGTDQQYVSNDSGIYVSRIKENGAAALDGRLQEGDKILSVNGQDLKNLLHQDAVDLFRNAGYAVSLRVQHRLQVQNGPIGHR
# T6: PTPN13_1, Q12923
# T6 sequence (Q12923 1088-1188, limits assumed, looked up): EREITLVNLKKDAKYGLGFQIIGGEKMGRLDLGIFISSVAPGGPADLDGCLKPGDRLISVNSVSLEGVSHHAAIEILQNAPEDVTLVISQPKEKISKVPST
# T7: GRIP1_3, Q9Y3R0
# T7 sequence (Q9Y3R0 247-346, limits assumed, looked up): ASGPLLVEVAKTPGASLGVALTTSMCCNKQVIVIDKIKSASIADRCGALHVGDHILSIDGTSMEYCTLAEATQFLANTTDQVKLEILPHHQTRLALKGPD
# T8: MPP6, Q9NZW5
# T8 sequence (Q9NZW5 125-219, limits assumed, looked up): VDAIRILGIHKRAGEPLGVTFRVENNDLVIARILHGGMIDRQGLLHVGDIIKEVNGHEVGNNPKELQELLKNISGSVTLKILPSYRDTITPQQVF
# T9: PDZD7_3, Q9H5P4
# T9 sequence (Q9H5P4 857-944, limits assumed, looked up): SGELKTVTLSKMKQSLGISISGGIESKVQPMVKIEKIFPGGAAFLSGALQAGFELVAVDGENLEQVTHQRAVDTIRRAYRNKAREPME
# T10: DFNB31_1, Q9P202
# T10 sequence (Q9P202 135-233, limits assumed, looked up): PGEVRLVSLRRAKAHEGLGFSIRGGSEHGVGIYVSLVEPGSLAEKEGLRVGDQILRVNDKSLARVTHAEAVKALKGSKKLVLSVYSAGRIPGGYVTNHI
# T11: DFNB31_3, Q9P202
# T11 sequence (Q9P202 811-907, limits assumed, looked up): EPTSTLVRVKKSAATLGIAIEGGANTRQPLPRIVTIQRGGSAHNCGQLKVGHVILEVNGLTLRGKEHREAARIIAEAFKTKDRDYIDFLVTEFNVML
# T12: SHANK1, Q9Y566
# T12 sequence (Q9Y566 658-767, limits assumed, looked up): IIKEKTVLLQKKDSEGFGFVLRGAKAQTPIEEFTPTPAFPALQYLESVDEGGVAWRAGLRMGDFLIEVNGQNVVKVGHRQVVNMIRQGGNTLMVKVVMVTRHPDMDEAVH
# Biological target: TJP1_3, Q07157
# Sequence (Q07157 416-512): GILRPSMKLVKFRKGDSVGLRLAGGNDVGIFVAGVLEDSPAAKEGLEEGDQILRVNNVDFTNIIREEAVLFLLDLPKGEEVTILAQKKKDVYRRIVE
# Experiment: holdup assay
# Parameters: key: below the threshold = too weak to quantify, mostly under pKd 3.1 to 4
# Conditions: plain residues with an end cap or a label only (N-terminal biotin on a linker: ado-ado)
row,Binder,pKd
1,"KPDKQEEFYA [SDC3, O75056]",below the threshold

# Biological target: DLG5_1, Q8TDM6
# Sequence (Q8TDM6 617-713): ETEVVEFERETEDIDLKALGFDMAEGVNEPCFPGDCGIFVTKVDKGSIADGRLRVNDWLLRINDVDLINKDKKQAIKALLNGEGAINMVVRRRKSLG
# Experiment: holdup assay
# Parameters: key: below the threshold = too weak to quantify, mostly under pKd 3.1 to 4
# Conditions: plain residues with an end cap or a label only (N-terminal biotin on a linker: ado-ado)
row,Binder,pKd
1,"KPDKQEEFYA [SDC3, O75056]",below the threshold

# Biological target: NHERF2_2, Q15599
# Sequence (Q15599 142-238): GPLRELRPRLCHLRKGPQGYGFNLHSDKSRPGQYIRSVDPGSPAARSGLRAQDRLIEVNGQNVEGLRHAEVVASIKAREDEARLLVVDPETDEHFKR
# Experiment: holdup assay
# Parameters: key: below the threshold = too weak to quantify, mostly under pKd 3.1 to 4
# Conditions: plain residues with an end cap or a label only (N-terminal biotin on a linker: ado-ado)
row,Binder,pKd
1,"KPDKQEEFYA [SDC3, O75056]",below the threshold

# Biological target: T1, MPDZ_12, O75970
# Experiment: holdup assay
# Parameters: key: below the threshold = too weak to quantify, mostly under pKd 3.1 to 4
# Conditions: plain residues with an end cap or a label only (N-terminal biotin on a linker: ado-ado)
row,Binder,pKd
1,"KPDKQEEFYA [SDC3, O75056]",3.73

# Biological target: FRMPD2_3, Q68DX3
# Sequence (Q68DX3 1073-1166): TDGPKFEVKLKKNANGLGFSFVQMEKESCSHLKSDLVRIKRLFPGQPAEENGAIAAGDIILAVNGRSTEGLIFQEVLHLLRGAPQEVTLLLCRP
# Experiment: holdup assay
# Parameters: key: below the threshold = too weak to quantify, mostly under pKd 3.1 to 4
# Conditions: plain residues with an end cap or a label only (N-terminal biotin on a linker: ado-ado)
row,Binder,pKd
1,"KPDKQEEFYA [SDC3, O75056]",below the threshold

# Biological target: T2, APBA3_1, O96018
# Experiment: holdup assay
# Parameters: key: below the threshold = too weak to quantify, mostly under pKd 3.1 to 4
# Conditions: plain residues with an end cap or a label only (N-terminal biotin on a linker: ado-ado)
row,Binder,pKd
1,"KPDKQEEFYA [SDC3, O75056]",below the threshold

# Biological target: T3, APBA1_2, Q02410
# Experiment: holdup assay
# Parameters: key: below the threshold = too weak to quantify, mostly under pKd 3.1 to 4
# Conditions: plain residues with an end cap or a label only (N-terminal biotin on a linker: ado-ado)
row,Binder,pKd
1,"KPDKQEEFYA [SDC3, O75056]",below the threshold

# Biological target: MAGI1_1, Q96QZ7
# Sequence (Q96QZ7 1-106): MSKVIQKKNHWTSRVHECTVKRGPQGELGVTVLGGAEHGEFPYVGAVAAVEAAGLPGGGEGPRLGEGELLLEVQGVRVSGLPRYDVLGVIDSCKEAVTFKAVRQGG
# Experiment: holdup assay
# Parameters: key: below the threshold = too weak to quantify, mostly under pKd 3.1 to 4
# Conditions: plain residues with an end cap or a label only (N-terminal biotin on a linker: ado-ado)
row,Binder,pKd
1,"KPDKQEEFYA [SDC3, O75056]",below the threshold

# Biological target: DLG4_2, P78352
# Sequence (P78352 155-259): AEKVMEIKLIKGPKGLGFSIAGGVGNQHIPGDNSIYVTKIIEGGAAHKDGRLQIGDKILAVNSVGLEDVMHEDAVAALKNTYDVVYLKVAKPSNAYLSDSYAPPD
# Experiment: holdup assay
# Parameters: key: below the threshold = too weak to quantify, mostly under pKd 3.1 to 4
# Conditions: plain residues with an end cap or a label only (N-terminal biotin on a linker: ado-ado)
row,Binder,pKd
1,"KPDKQEEFYA [SDC3, O75056]",below the threshold

# Biological target: T4, GRIP1_7, Q9Y3R0
# Experiment: holdup assay
# Parameters: key: below the threshold = too weak to quantify, mostly under pKd 3.1 to 4
# Conditions: plain residues with an end cap or a label only (N-terminal biotin on a linker: ado-ado)
row,Binder,pKd
1,"KPDKQEEFYA [SDC3, O75056]",below the threshold

# Biological target: DLG1_1, Q12959
# Experiment: holdup assay
# Parameters: key: below the threshold = too weak to quantify, mostly under pKd 3.1 to 4
# Conditions: plain residues with an end cap or a label only (N-terminal biotin on a linker: ado-ado)
row,Binder,pKd
1,"KPDKQEEFYA [SDC3, O75056]",below the threshold

# Biological target: AHNAK1, Q09666
# Sequence (Q09666 4-100): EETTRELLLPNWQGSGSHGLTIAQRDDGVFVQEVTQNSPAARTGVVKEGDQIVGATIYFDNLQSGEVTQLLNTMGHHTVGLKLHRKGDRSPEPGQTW
# Experiment: holdup assay
# Parameters: key: below the threshold = too weak to quantify, mostly under pKd 3.1 to 4
# Conditions: plain residues with an end cap or a label only (N-terminal biotin on a linker: ado-ado)
row,Binder,pKd
1,"KPDKQEEFYA [SDC3, O75056]",below the threshold

# Biological target: T5, SYNJ2BP, P57105
# Experiment: holdup assay
# Parameters: key: below the threshold = too weak to quantify, mostly under pKd 3.1 to 4
# Conditions: plain residues with an end cap or a label only (N-terminal biotin on a linker: ado-ado)
row,Binder,pKd
1,"KPDKQEEFYA [SDC3, O75056]",below the threshold

# Biological target: Inadl_8, Q8NI35
# Sequence (Q8NI35 1425-1530): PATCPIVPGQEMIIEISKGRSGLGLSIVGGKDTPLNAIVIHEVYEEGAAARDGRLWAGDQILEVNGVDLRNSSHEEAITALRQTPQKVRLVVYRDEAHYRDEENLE
# Experiment: holdup assay
# Parameters: key: below the threshold = too weak to quantify, mostly under pKd 3.1 to 4
# Conditions: plain residues with an end cap or a label only (N-terminal biotin on a linker: ado-ado)
row,Binder,pKd
1,"KPDKQEEFYA [SDC3, O75056]",below the threshold

# Biological target: T6, PTPN13_1, Q12923
# Experiment: holdup assay
# Parameters: key: below the threshold = too weak to quantify, mostly under pKd 3.1 to 4
# Conditions: plain residues with an end cap or a label only (N-terminal biotin on a linker: ado-ado)
row,Binder,pKd
1,"KPDKQEEFYA [SDC3, O75056]",below the threshold

# Biological target: GRID2IP_2, A4D2P6
# Sequence (A4D2P6 272-370): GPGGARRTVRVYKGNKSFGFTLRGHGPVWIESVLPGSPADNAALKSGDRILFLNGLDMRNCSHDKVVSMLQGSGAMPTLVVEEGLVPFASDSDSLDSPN
# Experiment: holdup assay
# Parameters: key: below the threshold = too weak to quantify, mostly under pKd 3.1 to 4
# Conditions: plain residues with an end cap or a label only (N-terminal biotin on a linker: ado-ado)
row,Binder,pKd
1,"KPDKQEEFYA [SDC3, O75056]",below the threshold

# Biological target: T7, GRIP1_3, Q9Y3R0
# Experiment: holdup assay
# Parameters: key: below the threshold = too weak to quantify, mostly under pKd 3.1 to 4
# Conditions: plain residues with an end cap or a label only (N-terminal biotin on a linker: ado-ado)
row,Binder,pKd
1,"KPDKQEEFYA [SDC3, O75056]",below the threshold

# Biological target: T8, MPP6, Q9NZW5
# Experiment: holdup assay
# Parameters: key: below the threshold = too weak to quantify, mostly under pKd 3.1 to 4
# Conditions: plain residues with an end cap or a label only (N-terminal biotin on a linker: ado-ado)
row,Binder,pKd
1,"KPDKQEEFYA [SDC3, O75056]",3.77

# Biological target: GRID2IP_1, A4D2P6
# Sequence (A4D2P6 1-87): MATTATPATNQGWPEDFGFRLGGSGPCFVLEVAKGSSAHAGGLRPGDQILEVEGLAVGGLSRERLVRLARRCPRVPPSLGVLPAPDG
# Experiment: holdup assay
# Parameters: key: below the threshold = too weak to quantify, mostly under pKd 3.1 to 4
# Conditions: plain residues with an end cap or a label only (N-terminal biotin on a linker: ado-ado)
row,Binder,pKd
1,"KPDKQEEFYA [SDC3, O75056]",below the threshold

# Biological target: T9, PDZD7_3, Q9H5P4
# Experiment: holdup assay
# Parameters: key: below the threshold = too weak to quantify, mostly under pKd 3.1 to 4
# Conditions: plain residues with an end cap or a label only (N-terminal biotin on a linker: ado-ado)
row,Binder,pKd
1,"KPDKQEEFYA [SDC3, O75056]",below the threshold

# Biological target: PDZRN4_1, Q6ZMN7
# Sequence (Q6ZMN7 213-318): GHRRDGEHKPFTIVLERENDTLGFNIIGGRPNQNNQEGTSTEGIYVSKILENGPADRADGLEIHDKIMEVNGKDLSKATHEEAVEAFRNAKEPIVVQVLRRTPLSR
# Experiment: holdup assay
# Parameters: key: below the threshold = too weak to quantify, mostly under pKd 3.1 to 4
# Conditions: plain residues with an end cap or a label only (N-terminal biotin on a linker: ado-ado)
row,Binder,pKd
1,"KPDKQEEFYA [SDC3, O75056]",below the threshold

# Biological target: T10, DFNB31_1, Q9P202
# Experiment: holdup assay
# Parameters: key: below the threshold = too weak to quantify, mostly under pKd 3.1 to 4
# Conditions: plain residues with an end cap or a label only (N-terminal biotin on a linker: ado-ado)
row,Binder,pKd
1,"KPDKQEEFYA [SDC3, O75056]",below the threshold

# Biological target: T11, DFNB31_3, Q9P202
# Experiment: holdup assay
# Parameters: key: below the threshold = too weak to quantify, mostly under pKd 3.1 to 4
# Conditions: plain residues with an end cap or a label only (N-terminal biotin on a linker: ado-ado)
row,Binder,pKd
1,"KPDKQEEFYA [SDC3, O75056]",3.49

# Biological target: MAGI1_2, Q96QZ7
# Sequence (Q96QZ7 456-580): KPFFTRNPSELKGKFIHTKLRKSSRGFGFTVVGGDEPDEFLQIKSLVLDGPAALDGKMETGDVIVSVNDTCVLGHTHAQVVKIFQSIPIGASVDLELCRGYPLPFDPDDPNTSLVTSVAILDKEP
# Experiment: holdup assay
# Parameters: key: below the threshold = too weak to quantify, mostly under pKd 3.1 to 4
# Conditions: plain residues with an end cap or a label only (N-terminal biotin on a linker: ado-ado)
row,Binder,pKd
1,"KPDKQEEFYA [SDC3, O75056]",below the threshold

# Biological target: DLG4_3, P78352
# Sequence (P78352 306-403): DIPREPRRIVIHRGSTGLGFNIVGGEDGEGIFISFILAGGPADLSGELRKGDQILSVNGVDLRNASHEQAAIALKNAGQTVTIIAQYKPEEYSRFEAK
# Experiment: holdup assay
# Parameters: key: below the threshold = too weak to quantify, mostly under pKd 3.1 to 4
# Conditions: plain residues with an end cap or a label only (N-terminal biotin on a linker: ado-ado)
row,Binder,pKd
1,"KPDKQEEFYA [SDC3, O75056]",below the threshold

# Biological target: T12, SHANK1, Q9Y566
# Experiment: holdup assay
# Parameters: key: below the threshold = too weak to quantify, mostly under pKd 3.1 to 4
# Conditions: plain residues with an end cap or a label only (N-terminal biotin on a linker: ado-ado)
row,Binder,pKd
1,"KPDKQEEFYA [SDC3, O75056]",below the threshold
